Experimental data as given in patent US20230051847A1 (Johns Hopkins, published 2023).

Experiments:
RAS Q61WT[55-64] pHLA-A1 [1] = target: T1, RAS Q61WT[55-64] pHLA-A1 (human); experiment: flow cytometry: scFv phage supernatant on peptide-pulsed SigM5 cells (HLA-A1+), median fluorescence intensity
T1 construct: also called Q61WT pHLA-A1; H/K/N RAS WT(55-64) peptide on HLA-A1

p53^WT/HLA-A*02:01 pHLA [2] = target: p53^WT/HLA-A*02:01 pHLA (human); experiment: flow cytometry: scFv phage supernatant on peptide-pulsed T2 cells (HLA-A2+), median fluorescence intensity
RAS Q61WT[55-64] pHLA-A1 [3] = target: T1, RAS Q61WT[55-64] pHLA-A1; experiment: flow cytometry, phage on peptide-pulsed SigM5 cells; anti-M13, anti-rabbit PE
RAS Q61WT[55-64] pHLA-A1 [4] = target: T1, RAS Q61WT[55-64] pHLA-A1; experiment: as above; remark: listed apart in the source
RAS Q61WT[55-64] pHLA-A1 [5] = target: T1, RAS Q61WT[55-64] pHLA-A1; experiment: ELISA, scDb at 10 nM on titrated biotinylated pHLA-A1 on streptavidin plate; protein L, anti-protein L HRP
p53^WT/HLA-A*02:01 pHLA [6] = target: p53^WT/HLA-A*02:01 pHLA (human); experiment: ELISA, scDb on biotinylated pHLA on streptavidin plate; protein L, anti-protein L HRP
RAS Q61WT[55-64] pHLA-A1 [7] = target: T1, RAS Q61WT[55-64] pHLA-A1; experiment: ELISA, scDb at 10 nM on titrated biotinylated pHLA-A1 on streptavidin plate; protein L, anti-protein L HRP; remark: listed apart in the source
[8] = target: T2, CHD4 peptide (…) on HLA-A1 (human); experiment: co-culture of peptide-pulsed SigM5 cells with T cells and L2-U scDb; IFNγ release
T2 construct: whole, on cells; on peptide-pulsed SigM5 cells

RAS Q61WT[55-64] pHLA-A1 [9] = target: T1, RAS Q61WT[55-64] pHLA-A1; experiment: ELISA, scDb at 10 nM on titrated biotinylated pHLA-A1 on streptavidin plate; protein L, anti-protein L HRP; remark: listed apart in the source
RAS Q61WT[55-64] pHLA-A1 [10] = target: T1, RAS Q61WT[55-64] pHLA-A1; experiment: flow cytometry, phage on peptide-pulsed SigM5 cells; anti-M13, anti-rabbit PE; remark: listed apart in the source

B1: H/K/N RAS Q61H_A1_cl3 (scFv)
scFv: DIQMTQSPSSLSASVGDRVTITCRASQDVNTAVAWYQQKPGKAPKLLIYSASFLYSGVPSRFSGSRSGTDFTLTISSLQPEDFATYYCQQSIYYPFTFGQGTKVEIKRTGGGSGGGGSGGGASEVQLVESGGGLVQPGGSLRLSCAASGFNLYTSQMHWVRQAPGKGLEWVALVYPGYYVTSYADSVKGRFTISADTSKNTAYLQMNSLRAEDTAVYYCSRGAYYYSSAMDYWGQGTLVTVSS
B1: no binding (RAS Q61WT[55-64] pHLA-A1 [1]).

B2: p53_R175H_A2_cl16 (scFv)
scFv: DIQMTQSPSSLSASVGDRVTITCRASQDVNTAVAWYQQKPGKAPKLLIYSASFLYSGVPSRFSGSRSGTDFTLTITSLQPEDFATYYCQQQWSSPDTFGQGTKVEIKRTGGGSGGGGSGGGASEVQLVESGGGLVQPGGSLRLSCAASGFNLSYYDMHWVRQAPGKGLEWVALIYYGSGYTYYADSVKGRFTISADTSKNTAYLQMNSLRAEDTAVYYCSRGSYVSGMDYWGQGTLVTVSS
B2: no binding (p53^WT/HLA-A*02:01 pHLA [2]).

B3: H/R/N RAS Q61R_A1_cl6 (R6) (scFv)
scFv: DIQMTQSPSSLSASVGDRVTITCRASQDVNTAVAWYQQKPGKAPKLLIYSASFLYSGVPSRFSGSRSGTDFTLTISSLQPEDFATYYCQQYSNYPLTFGQGTKVEIKRTGGGSGGGGSGGGASEVQLVESGGGLVQPGGSLRLSCAASGFNVFYGSMHWVRQAPGKGLEWVAFIGPDSTYTYYADSVKGRFTISADTSKNTAYLQMNSLRAEDTAVYYCSRDLGSAYAMDYWGQGTLVTVSS
notes: also called Q61R clone R6; R6 scFv
B3: no binding (tested: single dose (50 µL phage supernatant)) (RAS Q61WT[55-64] pHLA-A1 [3]).

B4: H/K/N RAS Q61H_A1_cl10 (scFv)
scFv: DIQMTQSPSSLSASVGDRVTITCRASQDVNTAVAWYQQKPGKAPKLLIYSASFLYSGVPSRFSGSRSGTDFTLTISSLQPEDFATYYCQQTYYTPVTFGQGTKVEIKRTGGGSGGGGSGGGASEVQLVESGGGLVQPGGSLRLSCAASGFNISHYVMHWVRQAPGKGLEWVADFYPHSDSTYYADSVKGRFTISADTSKNTAYLQMNSLRAEDTAVYYCSRYQSYSFDYWGQGTLVTVSS
B4: no binding (RAS Q61WT[55-64] pHLA-A1 [1]).

B5: H/K/N RAS Q61L_A1_cl2 (L2) (scFv)
scFv: DIQMTQSPSSLSASVGDRVTITCRASQDVNTAVAWYQQKPGKAPKLLIYSASFLYSGVPSRFSGSRSGTDFTLTISSLQPEDFATYYCQQAVSYPWTFGQGTKVEIKRTGGGSGGGGSGGGASEVQLVESGGGLVQPGGSLRLSCAASGFNISSSGIHWVRQAPGKGLEWVAMVYGGSGYTNYADSVKGRFTISADTSKNTAYLQMNSLRAEDTAVYYCSRWAHYSAYMDYWGQGTLVTVSS
notes: also called Q61L clone L2; L2 scFv
B5: no binding (tested: single dose (50 µL phage supernatant)) (RAS Q61WT[55-64] pHLA-A1 [4]).

B6: R6-U scDb (bispecific antibody)
chain: DIQMTQSPSSLSASVGDRVTITCRASQDVNTAVAWYQQKPGKAPKLLIYSASFLYSGVPSRFSGSRSGTDFTLTISSLQPEDFATYYCQQYSNYPLTFGQGTKVEIKGGGGSEVQLQQSGPELVKPGASMKISCKASGYSFTGYTMNWVKQSHGKNLEWMGLINPYKGVSTYNQKFKDKATLTVDKSSSTAYMELLSLTSEDSAVYYCARSGYYGDSDWYFDVWGAGTTVTVSSGGGGSGGGGSGGGGSDIQMTQTTSSLSASLGDRVTISCRASQDIRNYLNWYQQKPDGTVKLLIYYTSRLHSGVPSKFSGSGSGTDYSLTISNLEQEDIATYFCQQGNTLPWTFAGGTKLEIKGGGGSEVQLVESGGGLVQPGGSLRLSCAASGFNVFYGSMHWVRQAPGKGLEWVAFIGPDSTYTYYADSVKGRFTISADTSKNTAYLQMNSLRAEDTAVYYCSRDLGSAYAMDYWGQGTLVTVSSHHHHHH
B6: no binding (tested: 10 ug/mL coated pHLA-A1, scDb at 10 nM) (RAS Q61WT[55-64] pHLA-A1 [5]).

B7: H20-UCHT1-scDb (bispecific antibody)
chain: DIQMTQSPSSLSASVGDRVTITCRASQDVNTAVAWYQQKPGKAPKLLIYSASFLYSGVPSRFSGSRSGTDFTLTISSLQPEDFATYYCQQSNAYPITFGQGTKVEIKGGGGSEVQLQQSGPELVKPGASMKISCKASGYSFTGYTMNWVKQSHGKNLEWMGLINPYKGVSTYNQKFKDKATLTVDKSSSTAYMELLSLTSEDSAVYYCARSGYYGDSDWYFDVWGAGTTVTVSSGGGGSGGGGSGGGGSDIQMTQTTSSLSASLGDRVTISCRASQDIRNYLNWYQQKPDGTVKLLIYYTSRLHSGVPSKFSGSGSGTDYSLTISNLEQEDIATYFCQQGNTLPWTFAGGTKLEIKGGGGSEVQLVESGGGLVQPGGSLRLSCAASGFNLNSYYMHWVRQAPGKGLEWVAMIIPGYGYTNYADSVKGRFTISADTSKNTAYLQMNSLRAEDTAVYYCSRSYYMYMDYWGQGTLVTVSSHHHHHH
notes: single-chain diabody of H20 with the anti-CD3 scFv UCHT1; also called H20-scDb
B7: binds (p53^WT/HLA-A*02:01 pHLA [6]).

B8: H/K/N RAS Q61H_A1_cl2 (scFv)
scFv: DIQMTQSPSSLSASVGDRVTITCRASQDVNTAVAWYQQKPGKAPKLLIYSASFLYSGVPSRFSGSRSGTDFTLTISSLQPEDFATYYCQQYDYYPFTFGQGTKVEIKRTGGGSGGGGSGGGASEVQLVESGGGLVQPGGSLRLSCAASGFNISYEAMHWVRQAPGKGLEWVALIYPNHGITSYADSVKGRFTISADTSKNTAYLQMNSLRAEDTAVYYCSRYSSSAMDYWGQGTLVTVSS
B8: no binding (RAS Q61WT[55-64] pHLA-A1 [1]).

B9: H1-U scDb (bispecific antibody)
chain: DIQMTQSPSSLSASVGDRVTITCRASQDVNTAVAWYQQKPGKAPKLLIYSASFLYSGVPSRFSGSRSGTDFTLTISSLQPEDFATYYCQQVIYYPFTFGQGTKVEIKGGGGSEVQLQQSGPELVKPGASMKISCKASGYSFTGYTMNWVKQSHGKNLEWMGLINPYKGVSTYNQKFKDKATLTVDKSSSTAYMELLSLTSEDSAVYYCARSGYYGDSDWYFDVWGAGTTVTVSSGGGGSGGGGSGGGGSDIQMTQTTSSLSASLGDRVTISCRASQDIRNYLNWYQQKPDGTVKLLIYYTSRLHSGVPSKFSGSGSGTDYSLTISNLEQEDIATYFCQQGNTLPWTFAGGTKLEIKGGGGSEVQLVESGGGLVQPGGSLRLSCAASGFNLYSYAIHWVRQAPGKGLEWVALLYPDYGVTSYADSVKGRFTISADTSKNTAYLQMNSLRAEDTAVYYCSRYRSYEYSVSSYSYSAMDYWGQGTLVTVSSHHHHHH
B9: no binding (tested: 10 ug/mL coated pHLA-A1, scDb at 10 nM) (RAS Q61WT[55-64] pHLA-A1 [7]).

B10: H/K/N RAS Q61H_A1_cl4 (scFv)
scFv: DIQMTQSPSSLSASVGDRVTITCRASQDVNTAVAWYQQKPGKAPKLLIYSASFLYSGVPSRFSGSRSGTDFTLTISSLQPEDFATYYCQQYDYYPFTFGQGTKVEIKRTGGGSGGGGSGGGASEVQLVESGGGLVQPGGSLRLSCAASGFNVFGYAIHWVRQAPGKGLEWVAEVYPGYDVTSYADSVKGRFTISADTSKNTAYLQMNSLRAEDTAVYYCSRYSWAGAFDYWGQGTLVTVSS
B10: no binding (RAS Q61WT[55-64] pHLA-A1 [1]).

B11: L2-U scDb (bispecific antibody)
chain: DIQMTQSPSSLSASVGDRVTITCRASQDVNTAVAWYQQKPGKAPKLLIYSASFLYSGVPSRFSGSRSGTDFTLTISSLQPEDFATYYCQQAVSYPWTFGQGTKVEIKGGGGSEVQLQQSGPELVKPGASMKISCKASGYSFTGYTMNWVKQSHGKNLEWMGLINPYKGVSTYNQKFKDKATLTVDKSSSTAYMELLSLTSEDSAVYYCARSGYYGDSDWYFDVWGAGTTVTVSSGGGGSGGGGSGGGGSDIQMTQTTSSLSASLGDRVTISCRASQDIRNYLNWYQQKPDGTVKLLIYYTSRLHSGVPSKFSGSGSGTDYSLTISNLEQEDIATYFCQQGNTLPWTFAGGTKLEIKGGGGSEVQLVESGGGLVQPGGSLRLSCAASGFNISSSGIHWVRQAPGKGLEWVAMVYGGSGYTNYADSVKGRFTISADTSKNTAYLQMNSLRAEDTAVYYCSRWAHYSAYMDYWGQGTLVTVSSHHHHHH
notes: also called L2 single chain diabody; H/K/N RAS Q61L(55-64)-A1 cl.2 UCHT1 scDb
B11: no binding (tested: 1 nM scDb) [8]; no binding (tested: 10 ug/mL coated pHLA-A1, scDb at 10 nM) (RAS Q61WT[55-64] pHLA-A1 [9]).

B12: p53_R175H_A2_cl15 (scFv)
scFv: DIQMTQSPSSLSASVGDRVTITCRASQDVNTAVAWYQQKPGKAPKLLIYSASFLYSGVPSRFSGSRSGTDFTLTISSLQPEDFATYYCQQSSYYPNTFGQGTKVEIKRTGGGSGGGGSGGGASEVQLVESGGGLVQPGGSLRLSCAASGFNLYQRDMHWVRQAPGKGLEWVAGLLYGSDHTEYADSVKGRFTISADTSKNTAYLQMNSLRAEDTAVYYCSRATYEEAFDYWGQGTLVTVSS
B12: no binding (p53^WT/HLA-A*02:01 pHLA [2]).

B13: p53_R175H_A2_cl6 (scFv)
scFv: DIQMTQSPSSLSASVGDRVTITCRASQDVNTAVAWYQQKPGKAPKLLIYSASFLYSGVPSRFSGSRSGTDFTLTISSLQPEDFATYYCQQQSSTPVTFGQGTKVEIKRTGGGSGGGGSGGGASEVQLVESGGGLVQPGGSLRLSCAASGFNVYQSDMHWVRQAPGKGLEWVATIWPYSGYTYYADSVKGRFTISADTSKNTAYLQMNSLRAEDTAVYYCSRDGMYAFDYWGQGTLVTVSS
B13: no binding (p53^WT/HLA-A*02:01 pHLA [2]).

B14: H/K/N RAS Q61H_A1_cl1 (H1) (scFv)
scFv: DIQMTQSPSSLSASVGDRVTITCRASQDVNTAVAWYQQKPGKAPKLLIYSASFLYSGVPSRFSGSRSGTDFTLTISSLQPEDFATYYCQQVIYYPFTFGQGTKVEIKRTGGGSGGGGSGGGASEVQLVESGGGLVQPGGSLRLSCAASGFNLYSYAIHWVRQAPGKGLEWVALLYPDYGVTSYADSVKGRFTISADTSKNTAYLQMNSLRAEDTAVYYCSRYRSYEYSVSSYSYSAMDYWGQGTLVTVSS
notes: also called Q61H clone H1; H1 scFv
B14: no binding (tested: single dose (50 µL phage supernatant)) (RAS Q61WT[55-64] pHLA-A1 [10]).
